These results are taken from PMC5807053, “Saposin Lipid Nanoparticles: A Highly Versatile and Modular Tool for Membrane Protein Research” (Structure(London, England:1993), 2018).

One data set concerns the target T1, PepTSo2 (Shewanella oneidensis, UniProt Q8EHE6).
T1 sequence (Q8EHE6 1-516): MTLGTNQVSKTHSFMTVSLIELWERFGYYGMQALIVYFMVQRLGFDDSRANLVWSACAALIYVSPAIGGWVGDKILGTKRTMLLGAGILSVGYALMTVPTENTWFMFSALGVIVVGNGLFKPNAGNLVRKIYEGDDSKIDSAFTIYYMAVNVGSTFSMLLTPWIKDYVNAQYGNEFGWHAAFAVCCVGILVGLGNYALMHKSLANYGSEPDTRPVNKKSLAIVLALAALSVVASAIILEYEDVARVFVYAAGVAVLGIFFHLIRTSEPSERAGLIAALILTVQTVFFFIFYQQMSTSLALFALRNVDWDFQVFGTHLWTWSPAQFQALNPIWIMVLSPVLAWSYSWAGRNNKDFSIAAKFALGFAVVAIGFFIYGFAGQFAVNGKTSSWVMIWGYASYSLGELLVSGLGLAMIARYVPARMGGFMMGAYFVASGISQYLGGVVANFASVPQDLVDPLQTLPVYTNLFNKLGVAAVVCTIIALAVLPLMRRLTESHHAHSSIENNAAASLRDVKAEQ
As to the kind of experiment: MST di-/tripeptide binding in solution to PepTSo2. Conditions: 20 °C. From the text: (§1) The samples were loaded in standard glass capillaries. […] Empty SapNPs were used as control measurements.

In data set [1] the target is T2, SapA/POPS empty nanoparticles (Homo sapiens, UniProt P07602).
T2 construct: saposin A (residues 60 to 140); made in house; host or cells: E. coli Rosetta gami-2 (DE3)
T2 sequence (P07602 60-140): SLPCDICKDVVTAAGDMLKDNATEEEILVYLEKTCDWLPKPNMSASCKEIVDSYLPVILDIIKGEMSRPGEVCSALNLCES
As to the kind of experiment: MST control for unspecific peptide binding to empty SapA/POPS nanoparticles.
Description: as §1

Another data set has as its target PepTSt. Conditions: MST, 20 °C.
The target in data set [2] is peptide transporter PepTSt from Streptococcus thermophilus (Streptococcus thermophilus) (UniProt Q5M4H8). The data set can be described thus: MST; label-free, transporter reconstituted in SapA/POPS nanoparticles at ~125 nM, 16 peptide concentrations, 1x PBS, 20 °C.
Data set [3] shares this target. The data set can be described thus: MST; label-free, transporter reconstituted in SapA/BL (brain total lipid extract) nanoparticles at ~125 nM, 16 peptide concentrations, 1x PBS, 20 °C.
For data set [4] the target is unchanged. The data set can be described thus: MST; label-free (intrinsic tryptophan fluorescence), DDM-solubilised transporter at ~125 nM, 16 peptide concentrations, 20 mM Tris pH 7.5, 150 mM NaCl, 5 % glycerol, 0.03 % DDM, 20 °C.
Data set [5] has as its target small-conductance mechanosensitive channel T2 from Thermoplasma volcanium (Thermoplasma volcanium). The data set can be described thus: SEC-MALS; triple-detection SEC conjugate analysis (UV, refractive index, multi-angle light scattering); 60 uL T2 at 5 mg/mL on SD200 10/300 in 20 mM Tris pH 7.5, 150 mM NaCl, 5 % glycerol, 0.03 % DDM.
The nature of data set [6]: Protein thermal unfolding by dye-free nanoDSF. It is filed as physicochemical. Conditions: purified protein alone, 20 to 95 °C. The protocol: The stability of the different DDM-solubilized or SapNP-reconstituted proteins was followed using a nanoDSF (Prometheus NT.48 form NanoTemper Technologies, GmbH). The dye-free proteins were excited at 280 nm and their intrinsic fluorescence at 350 and 330 nm were measured as a function of temperature to monitor the fluorescence changes upon heat unfolding. 10 μL of protein solution at a concentration of 0.5 mg/mL were loaded in a glass capillary, and the unfolding was measured in duplicates at a heating rate of 1 °C/min between 20 and 95 °C. The first derivative of the unfolding curves (350/330 nm ratio) was used to determine the transition midpoint (Tm).
In general terms: Differential scanning fluorimetry follows unfolding on heating by fluorescence.

Details of data set [7]: method as in Frauenfeld et al., 2016. Conditions: ref Frauenfeld et al., 2016, cited from earlier work.

Where two headings read alike, the source gives them in different places. Residues, ends and D or L forms follow the SMILES beside them.

The Kd is the equilibrium constant for the complex coming apart. Read a low Kd as higher affinity. In the case of `C[C@H](N)C(=O)N[C@@H](Cc1ccccc1)C(=O)N[C@@H](C)C(=O)O` [Ala-Phe-Ala] (H-Ala-Phe-Ala-OH; N-terminus and C-terminus assumed), the Kd at PepTSo2 (PepTSo2 in DDM) came to 3.4 ± 1.3 mM; on PepTSo2 (PepTSo2 reconstituted in SapA/BL), 5 ± 3 mM.
As to `CC(C)C[C@H](N)C(=O)N[C@@H](C)C(=O)O` [Leu-Ala] (H-Leu-Ala-OH; N-terminus and C-terminus assumed), the unspecific peptide binding entry in data set [1] is “no unspecific peptide binding”. In addition, the figures for the Kd on PepTSt (PepTSt in DDM), on PepTSt (PepTSt in SapA/BL) and at PepTSt (PepTSt in SapA/POPS) were 16.6 ± 3.6 mM, 16.4 ± 3.6 mM and 5.49 ± 1 mM, respectively.
Consider dipeptide Leu-Ala, for which the Kd in data set [2] was found to be 5.49 mM; in data set [3], 16.4 mM; in data set [4], 16.6 mM.
What is called stoichiometry N is the number of molecules, sites or subunits per partner or assembly. As for “small-conductance mechanosensitive channel T2 from Thermoplasma volcanium (natural protein)”, the stoichiometry N in data set [5] was 7.

B1: saposin A: human saposin A, Prosaposin residues 60 to 140, recombinant (protein)
chain: T2 sequence (P07602 60-140)
modifications: left off: His6, N-terminal, cleaved
notes: human saposin A, Prosaposin residues 60 to 140, recombinant
Turning to B1, the unfolding transition result in data set [6] is “does not show an unfolding transition”.

B2: PepTSo2: peptide transporter from Shewanella oneidensis (protein)
chain: T1 sequence (Q8EHE6 1-516)
On to B2, for which the Tm was 72 °C in [7] (encapsulated in SapA/BL nanoparticles) and 43 °C in data set [7] (in the detergent nonyl-β-D-maltopyranoside).
